target: HLA-A*24 (human); assay: UV peptide exchange ELISA

| peptide exchange yield | Binder |
| --- | --- |
| > 75% | RYEGILYTI |
| > 75% | LYISEVRNI |
| > 75% | KYKDYFPVI |
| > 75% | QWPWQASLQF |
| > 75% | VYPLLSRLYW |
| > 75% | IYFRDSSFL |
| 50 to 75% | SYIGLPLTL |
| > 75% | TLPNTIYRF |
| > 75% | MQPRMFFLF |
| 50 to 75% | YYADKKTFIVL |
| 50 to 75% | NYAENILTL |
| > 75% | QYLPGWTVLF |
| > 75% | QFAAPLRGIYF |
| > 75% | EFTTVLYNF |
| > 75% | KYALLLQDL |
| 10 to 20% | LIFMLANVF |
| > 75% | KYMKIFHKF |
| 50 to 75% | WYGWHFPEL |
| > 75% | RYMKKDYLI |
| > 75% | NYIYSISVF |
| > 75% | NYTLYPITF |
| > 75% | VFIDHPVHLKF |
| > 75% | VWSDVTPLNF |
| > 75% | KYADYFLEV |
| 10 to 20% | ILKEDPFLF |

| peptide exchange yield | Binder |
| --- | --- |
| > 75% | MYPDLSELLM |
| > 75% | TQPGDWTLF |
| > 75% | VMPSDSFFF |
| 50 to 75% | QYEPPSAPSTTF |
| 50 to 75% | LLIKLLQTF |
| > 75% | SYNGYVFYL |
| > 75% | KYFVPPQLF |
| 50 to 75% | SYEVRSTF |
| > 75% | LYQEILAQL |
| 20 to 50% | YLEKFYGL |
| > 75% | VYMIEPLEL |
| > 75% | VWSNVTPLKF |
| > 75% | AYLSAVGTF |
| > 75% | SLPDLTPTF |
| 10 to 20% | STIRGELFFF |
| > 75% | PYTNYTFDF |
| > 75% | VYPASKMFPFI |
| > 75% | QYDPTPLTW |
| 50 to 75% | SYSSCYSF |
| > 75% | KFIISDWRF |
| > 75% | QYQNVLTLW |
| > 75% | RYPGKFYRV |
| > 75% | AFPVTSIFHTF |
| 20 to 50% | KYSTTFFMV |
| 20 to 50% | KQMEDGHTLF |

| peptide exchange yield | Binder |
| --- | --- |
| > 75% | SYMVLAPVF |
| 50 to 75% | VQQWSVAVF |
| > 75% | YYSIISHTL |
| 10 to 20% | AYTLLGHEFV |
| > 75% | KYITNLEDL |
| > 75% | IYQQIIQTY |
| > 75% | KTPTNYYLF |
| 10 to 20% | IQMDEPMAF |
| > 75% | VYDQYFITL |
| > 75% | KYALLLQEL |
| > 75% | SYEKVINYL |
| > 75% | PFLPPAACFF |
| > 75% | DYIGSVEKW |
| 50 to 75% | TYLSIFDQL |
| > 75% | HYTYILEVF |
| > 75% | SYPELVKMVW |
| > 75% | RWMDQRLVF |
| 50 to 75% | TYNPDFSSL |
| > 75% | KYLEESVWL |
| > 75% | NYAIFDEGHML |
| > 75% | IMPEKFEFW |
| 50 to 75% | KSSVIASLLF |
| > 75% | YPSIIQEF |
| > 75% | YYSKSVGFMQW |
| > 75% | KYTNWKAFL |
